Data reported in article PMC2836971.

Biological target: Myc-tagged Emi2-C RL^+ mutant (only the RL motif intact; D-box and ZBR mutated) (Xenopus) (UniProt Q8AXF4)
Assay: co-IP

Substance: Cdc27 (APC/C core subunit), endogenous in Xenopus CSF extracts (natural protein)
- percent less strongly associated with Cdc27 than the WT: 50%
